In patent US8609611B2, “Synthesis of small particles” (MAP Pharmaceuticals, Inc., priority 2001, dated 2013):
Read-outs that look alike come from different tables or passages of the source.

Key:
[1] = Size exclusion chromatography: biochemical integrity, monomer content; format: physicochemical; details: by anti-solvent used in processing
Protocol: A protein-Pak 125 column (Waters, USA) was used for insulin. The mobile phase consisted of 50 mM sodium phosphate buffer at pH 3 with 300 mM sodium chloride. The powder samples were dissolved to prepare 1 mg/mL solution in deionised water by gentle shaking for 10 minutes to have complete dissolution. The supernatant was filtered through […] membrane filter and then injected into the HPLC column. […] The software Millennium 3.5 was used in the quantification of the monomer content.

[2] = Median particle size by laser diffraction; format: physicochemical
From the text: These fine insulin particles may aggregate to form larger particles due to intermolecular interaction between the molecules. […] Insulin precipitated as nano-sized particles, was also agglomerated to micron-sized particles.

[3] = Aerosol performance by Cascade Impactor (5 stage Marple-Miller Impactor), fine particle mass; format: physicochemical; details: 60 L/min, Dinkihaler, FIG. 6
Protocol: In order to determine the aerosol performance of the collected fine protein particles, in vitro testing of the particles was assessed using a 5 stage Marple-Miller Impactor (Model 160, MSP Corporation, USA) with cut-off diameters of 10.0, 5.0, 2.5, 1.25, and 0.625 μm. The Marple-Miller impactor consisted of a stainless steel inlet throat, five impaction stages and an integral filter stage. The stages were previously coated with propylene glycol/methanol (50:50) to prevent particle bounce, thus minimising the probability of carry over of coarse particles onto lower stages.
A mass of 10-20 mg of insulin was weighed into a gelatin capsule (size 3, Park Davis, Australia) and was immediately dispersed by a powder inhaler device, Dinkihaler (Aventis, Frankfurt, Germany) into the Marple Miller Impactor at 60 L/min using a vacuum source (ERWEKA GMBH, Germany). The fraction of the protein recovered in each stage was calculated by measuring the absorbance of the protein solution against the absorbance of a standard 1% solution of insulin.

[4] = Size of precipitated primary particles (SEM images); format: physicochemical
From the text: These fine insulin particles may aggregate to form larger particles due to intermolecular interaction between the molecules.

[5] = values reported in the literature; cited from earlier work

Substance	retention of biological activity as indicated by the in vitro test for monomer content [1]	median particle size (laser diffraction) of agglomerated powder [2] [μm]	median particle size (laser diffraction) of agglomerated powder ([2]; listed as Insulin)	fine particle fraction (%<5 μm) [3]	size of nano-sized particles as precipitated ([4]; modified (dual chamber) ASES apparatus)	size of nano-sized particles as precipitated ([4]; single-stage apparatus)	maximum FPM for insulin obtained by other methods [5] [%]
Ethane-ethanol	retention of biological activity	–	–	–	–	–	–
insulin: Low endotoxin bovine insulin (Sigma), micronised from aqueous solution by the ASES process into fine particles	–	5	about 5 μm	at least 42%	50-500 nm	50-500 nm	≤ 10
CO2-ethanol: Insulin particles precipitated from aqueous solution using CO2-20 mol % ethanol as anti-solvent	significant deactivation	–	–	–	–	–	–
